# According to patent US20220169714A1 (published 2022):
# T1: recombinant human CXCL1 protein (human, UniProt P09341 35-107)
# T1 sequence: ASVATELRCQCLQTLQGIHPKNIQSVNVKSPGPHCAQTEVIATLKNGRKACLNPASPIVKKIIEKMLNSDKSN
# T2: rat CXCL1 (rat, UniProt P14095 25-96, limits assumed)
# T2 sequence (looked up): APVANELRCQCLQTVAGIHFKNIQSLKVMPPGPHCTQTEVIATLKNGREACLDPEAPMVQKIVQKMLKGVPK
# T3: mouse CXCL1 (mouse, UniProt P12850 25-96, limits assumed)
# T3 sequence (looked up): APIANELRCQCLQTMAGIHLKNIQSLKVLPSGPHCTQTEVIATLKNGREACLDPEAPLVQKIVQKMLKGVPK
# B1: HUM2401-ScFv_1 (humanized version 2) (scFv)
# scFv: QVQLVESGGGLVQPGGSLRLSCKASGYTFTSYYIYWVRQAPGKGLEWIGEIDPSHGGPTFNEKFKNRFTISRDNSKNTLYLQMNSLRAEDTAVYYCTRESGTGAMDYWGQGTLVTVSSGGGGSGGGGSGGGARGGGGSDIQMTQSPSSLSASVGDRATISCKASQSVDYDGDSYVNWYQQKPGKAPKLLIYAASNLESGIPSRFSGSGSGTDFTLTISSLQPEDFATYYCQQSSEDPWTFGQGTKVEIKR
# notes: Detected through a c-Myc tag; also called HumH2401scFv; Hum HL2401_scFv
# B2: anti-CXCL1 neutralizing monoclonal mouse antibody (HL2401) (antibody, V domains shown)
# VH: EVKLVESGAELVKPGASVKLSCKASGYTFTSYYIYWVKQRPGQGLEWIGEIDPSHGGPTFNEKFKNKATLTVDKSSSTAYMQLSSLTSDDSAVYYCTRESGTGAMDYWGQGTTLTVSS
# VL: DIVLTQSPASLAVSLGQRATISCKASQSVDYDGDSYVNWYQQKPGQPPKLLIYAASNLESRIPARFSGSGSGTDFTLNILPVEEDDGATYYCQQSSEDPWTFGGGTKLEIKR
# notes: Mouse IgG from hybridoma clone HL2401, purified on protein G; also called CXCL1 mAb (HL2401); CXCL1 monoclonal antibody (HL2401)
# Tests used:
# [1] = biological target: T1, recombinant human CXCL1 protein; test: ELISA on coated human CXCL1 against coated BSA, scFv at 10 and 2 ug/mL, anti-Myc HRP, TMB
# Protocol: The human CxCL1 protein was coated onto 96-well, 30 ng for well at 4° C. overnight. The plate was blocked by 3% skim milk in PBS 2 h at room temperature. The plate was washed 3 times with PBST and applied anti-human CXCL1 humanized version scFv antibodies at different dilution concentration. The anti-Myc mouse monoclonal antibody with HRP conjugate antibody was applied and developed with TMB solution.
# [2] = biological target: T1, recombinant human CXCL1 protein; test: apparent affinity-binding constant, in PBS; method not stated (FIG. 1B); in PBS
# rat CXCL1 = biological target: T2, rat CXCL1; test: Western blot: recombinant CXCL1 loaded at 10, 20 and 30 ng, probed with HL2401
# mouse CXCL1 = biological target: T3, mouse CXCL1; test: as above
# [3] = biological target: T1, recombinant human CXCL1 protein; test: apparent affinity-binding constant, in serum 1:4 dilution; method not stated (FIG. 1B); serum, 1:4 dilution
# [4] = biological target: T1, recombinant human CXCL1 protein; test: apparent affinity-binding constant, in serum 1:40 dilution; method not stated (FIG. 1B); serum, 1:40 dilution
Binder,binding result [1],Kd [2] [µg/mL],binding result (rat CXCL1),binding result (mouse CXCL1),Kd [3] [µg/mL],Kd [4] [µg/mL]
B1,binds,,,,,
B2,,0.176,no binding (tested: 30 ng),no binding (tested: 30 ng),0.387,0.252
